# According to IntAct's records for PubMed 31515488:
# B1: 60 kDa heat shock protein, mitochondrial (Homo sapiens), P10809 (parent)
# chain: MLRLPTVFRQMRPVSRVLAPHLTRAYAKDVKFGADARALMLQGVDLLADAVAVTMGPKGRTVIIEQSWGSPKVTKDGVTVAKSIDLKDKYKNIGAKLVQDVANNTNEEAGDGTTTATVLARSIAKEGFEKISKGANPVEIRRGVMLAVDAVIAELKKQSKPVTTPEEIAQVATISANGDKEIGNIISDAMKKVGRKGVITVKDGKTLNDELEIIEGMKFDRGYISPYFINTSKGQKCEFQDAYVLLSEKKISSIQSIVPALEIANAHRKPLVIIAEDVDGEALSTLVLNRLKVGLQVVAVKAPGFGDNRKNQLKDMAIATGGAVFGEEGLTLNLEDVQPHDLGKVGEVIVTKDDAMLLKGKGDKAQIEKRIQEIIEQLDVTTSEYEKEKLNERLAKLSDGVAVLKVGGTSDVEVNEKKDRVTDALNATRAAVEEGIVLGGGCALLRCIPALDSLTPANEDQKIGIEIIKRTLKIPAMTIAKNAGVEGSLIVEKIMQSSSEVGYDAMAGDFVNMVEKGIIDPTKVVRTALLDAAGVASLLTTAEVVVTEIPKEEKDPGMGAMGGMGGGMGGGMF
# partner: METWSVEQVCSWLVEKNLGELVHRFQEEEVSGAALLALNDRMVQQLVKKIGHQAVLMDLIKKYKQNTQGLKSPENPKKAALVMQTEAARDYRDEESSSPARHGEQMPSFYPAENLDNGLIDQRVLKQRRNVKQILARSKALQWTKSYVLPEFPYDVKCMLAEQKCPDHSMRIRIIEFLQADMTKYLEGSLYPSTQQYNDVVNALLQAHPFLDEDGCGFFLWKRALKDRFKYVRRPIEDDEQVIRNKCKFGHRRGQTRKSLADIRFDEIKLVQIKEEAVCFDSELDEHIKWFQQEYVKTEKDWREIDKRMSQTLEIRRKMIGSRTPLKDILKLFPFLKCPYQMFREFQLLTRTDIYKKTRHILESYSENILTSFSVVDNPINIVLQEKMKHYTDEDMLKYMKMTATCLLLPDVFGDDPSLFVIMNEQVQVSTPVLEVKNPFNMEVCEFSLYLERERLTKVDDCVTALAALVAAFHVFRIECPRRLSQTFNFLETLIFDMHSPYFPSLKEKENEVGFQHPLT
# B2: "Bile acid-CoA:amino acid N-acyltransferase" (Homo sapiens), Q14032 (parent)
# chain: MIQLTATPVSALVDEPVHIRATGLIPFQMVSFQASLEDENGDMFYSQAHYRANEFGEVDLNHASSLGGDYMGVHPMGLFWSLKPEKLLTRLLKRDVMNRPFQVQVKLYDLELIVNNKVASAPKASLTLERWYVAPGVTRIKVREGRLRGALFLPPGEGLFPGVIDLFGGLGGLLEFRASLLASRGFASLALAYHNYEDLPRKPEVTDLEYFEEAANFLLRHPKVFGSGVGVVSVCQGVQIGLSMAIYLKQVTATVLINGTNFPFGIPQVYHGQIHQPLPHSAQLISTNALGLLELYRTFETTQVGASQYLFPIEEAQGQFLFIVGEGDKTINSKAHAEQAIGQLKRHGKNNWTLLSYPGAGHLIEPPYSPLCCASTTHDLRLHWGGEVIPHAAAQEHAWKEIQRFLRKHLIPDVTSQL
# B3: Coiled-coil domain-containing glutamate-rich protein 1 (Homo sapiens), Q8TC90 (parent)
# chain: MTQTLDTREDPLNLGGGGGGGCGCGWAHSASLSSWSSCHRRRPGAPAYNRPHRYSPKTEYGPPRKQPKQQHGPGFWFQPPVCSNWGCWGGPWRPPPPGFWKFPCPVQVFRVYGLHPLCFCCCSCWSGSWNPGWVKPPGRKKRWGRRGRGLRHHPRHSYPRSPPADVSTLPRPVKLYEWREPGMRAPPNTTQFIMNQIYEDMRQQEKVERQQEALRAQKATVSGEASPARSSGNDAPPGGSKETWGLQETLYGFVQNPSLAFSPNPEENQSLAPLLVEEEEEKKNDDEEEYDQEVCDAKEASEEEEEVEDEEEEVEDEEEEEVEEAEYVEEGEEELEEEELEEEEEVLEENEQRGEEFHLPLEMPLSIFVEAEEKRENFISCTFLNPEQIIPKVPQESLFMAQDFNC
# B4: E3 ubiquitin-protein ligase RNF8 (Homo sapiens), O76064 (parent)
# chain: MGEPGFFVTGDRAGGRSWCLRRVGMSAGWLLLEDGCEVTVGRGFGVTYQLVSKICPLMISRNHCVLKQNPEGQWTIMDNKSLNGVWLNRARLEPLRVYSIHQGDYIQLGVPLENKENAEYEYEVTEEDWETIYPCLSPKNDQMIEKNKELRTKRKFSLDELAGPGAEGPSNLKSKINKVSCESGQPVKSQGKGEVASTPSDNLDPKLTALEPSKTTGAPIYPGFPKVTEVHHEQKASNSSASQRSLQMFKVTMSRILRLKIQMQEKHEAVMNVKKQTQKGNSKKVVQMEQELQDLQSQLCAEQAQQQARVEQLEKTFQEEEQHLQGLEIAQGEKDLKQQLAQALQEHWALMEELNRSKKDFEAIIQAKNKELEQTKEEKEKMQAQKEEVLSHMNDVLENELQCIICSEYFIEAVTLNCAHSFCSYCINEWMKRKIECPICRKDIKSKTYSLVLDNCINKMVNNLSSEVKERRIVLIRERKAKRLF
# partner: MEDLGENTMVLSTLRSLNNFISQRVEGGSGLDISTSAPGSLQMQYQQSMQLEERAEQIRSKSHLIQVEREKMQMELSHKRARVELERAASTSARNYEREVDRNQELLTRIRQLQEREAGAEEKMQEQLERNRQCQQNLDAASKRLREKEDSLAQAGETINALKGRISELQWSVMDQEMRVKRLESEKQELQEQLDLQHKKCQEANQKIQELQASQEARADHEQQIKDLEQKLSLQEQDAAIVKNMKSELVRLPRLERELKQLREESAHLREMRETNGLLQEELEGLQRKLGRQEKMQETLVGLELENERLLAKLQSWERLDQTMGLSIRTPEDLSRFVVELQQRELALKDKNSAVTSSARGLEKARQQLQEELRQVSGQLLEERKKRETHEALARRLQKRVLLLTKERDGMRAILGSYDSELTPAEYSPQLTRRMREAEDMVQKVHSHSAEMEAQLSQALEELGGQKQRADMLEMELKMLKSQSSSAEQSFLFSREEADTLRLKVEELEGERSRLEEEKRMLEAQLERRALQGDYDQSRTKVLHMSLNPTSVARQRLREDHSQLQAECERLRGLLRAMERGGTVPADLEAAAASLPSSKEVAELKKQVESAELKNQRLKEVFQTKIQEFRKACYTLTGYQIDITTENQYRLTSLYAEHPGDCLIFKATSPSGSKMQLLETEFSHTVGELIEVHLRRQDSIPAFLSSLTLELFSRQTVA
# B5: Zinc finger CCCH-type with G patch domain-containing protein (Homo sapiens), Q8N5A5 (parent)
# chain: MDEESLESALQTYRAQLQQVELALGAGLDSSEQADLRQLQGDLKELIELTEASLVSVRKSSLLAALDEERPGRQEDAEYQAFREAITEAVEAPAAARGSGSETVPKAEAGPESAAGGQEEEEGEDEEELSGTKVSAPYYSSWGTLEYHNAMVVGTEEAEDGSAGVRVLYLYPTHKSLKPCPFFLEGKCRFKENCRFSHGQVVSLDELRPFQDPDLSSLQAGSACLAKHQDGLWHAARITDVDNGYYTVKFDSLLLREAVVEGDGILPPLRTEATESDSDSDGTGDSSYARVVGSDAVDSAQSSALCPSLAVVGSDAVDSGTCSSAFAGWEVHTRGIGSRLLTKMGYEFGKGLGRHAEGRVEPIHAVVLPRGKSLDQCVETLQKQTRVGKAGTNKPPRCRGRGARPGGRPAPRNVFDFLNEKLQGQAPGALEAGAAPAGRRSKDMYHASKSAKRALSLRLFQTEEKIERTQRDIRSIQEALARNAGRHSVASAQLQEKLAGAQRQLGQLRAQEAGLQQEQRKADTHKKMTEF
# B6: Translation initiation factor eIF2B subunit beta (Homo sapiens), P49770 (parent)
# chain: MPGSAAKGSELSERIESFVETLKRGGGPRSSEEMARETLGLLRQIITDHRWSNAGELMELIRREGRRMTAAQPSETTVGNMVRRVLKIIREEYGRLHGRSDESDQQESLHKLLTSGGLNEDFSFHYAQLQSNIIEAINELLVELEGTMENIAAQALEHIHSNEVIMTIGFSRTVEAFLKEAARKRKFHVIVAECAPFCQGHEMAVNLSKAGIETTVMTDAAIFAVMSRVNKVIIGTKTILANGALRAVTGTHTLALAAKHHSTPLIVCAPMFKLSPQFPNEEDSFHKFVAPEEVLPFTEGDILEKVSVHCPVFDYVPPELITLFISNIGGNAPSYIYRLMSELYHPDDHVL
# Variants of: B1
# Conditions: with samd3_human SAMD3, Q8N6K7
row,Variant,effect of a mutation on the interaction
1,R142K,disrupting interaction strength

# Variants of: B2
# Conditions: with fhl3_human FHL3, Q13643
row,Variant,effect of a mutation on the interaction
1,A182S,with no effect

# Variants of: B2
# Conditions: with FBP1, P09467
row,Variant,effect of a mutation on the interaction
1,R201P,with no effect
2,V304A,with no effect

# Variants of: B3
# Conditions: with pls1_human PLSCR1, O15162
row,Variant,effect of a mutation on the interaction
1,E293K,with no effect

# Variants of: B3
# Conditions: with nt2na_human NOTCH2NLA
row,Variant,effect of a mutation on the interaction
1,E293K,with no effect

# Variants of: B4
# Conditions: with md1l1_human MAD1L1, Q9Y6D9
row,Variant,effect of a mutation on the interaction
1,V310L,with no effect

# Variants of: B5
# Conditions: with tfp11_human TFIP11, Q9UBB9
row,Variant,effect of a mutation on the interaction
1,S61R,with no effect

# Variants of: B5
# Conditions: with cep70_human CEP70, Q8NHQ1
row,Variant,effect of a mutation on the interaction
1,S61R,with no effect

# Variants of: B5
# Conditions: with ldoc1_human LDOC1, O95751
row,Variant,effect of a mutation on the interaction
1,S61R,with no effect

# Variants of: B6
# Conditions: with ei2bd_human EIF2B4, Q9UI10
row,Variant,effect of a mutation on the interaction
1,A127V,with no effect
